Results reported in the supplement of paper PMC10899765.

Each sequence was assayed on MCF10A (assay: 5+ nucleoli phenotype percent effect (relative to siNT 0% and siKIF11 100%); higher = more cells with five or more nucleoli). Details: 20 nM; 72 h.
Protocol: (§1)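 After 72 h, cells were fixed and stained with Hoechst and anti-fibrillarin, and nucleoli per nucleus were counted with CellProfiler. Values are plate-adjusted percent effect for the one-nucleolus and 5+ nucleoli phenotypes, normalised to siNT (0%) and to the positive controls siNOL11 or siKIF11 (100%), as the mean of biological triplicates. Percent viability is the nuclei count relative to siNT.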

Row | Sequence | 5+ nucleoli phenotype percent effect
1 | GUGCCAGCUGCAGUGGGGGAG [hsa-miR-1202] | 44.3%
2 | AGUUAAUGAAUCCUGGAAAGU [hsa-miR-569] | -15.9%
3 | CGCAGGGGCCGGGUGCUCACCG [hsa-miR-1909-3p] | 13.4%
4 | AAGGGGCUGGGGGAGCACA [hsa-miR-6085] | -17.6%
5 | GGGCUCACAUCACCCCAU [hsa-miR-4284] | 8.32%
6 | AGCAUGACAGAGGAGAGGUGG [hsa-miR-6076] | -17.6%
7 | AGAUGUAUGGAAUCUGUAUAUAUC [hsa-miR-3171] | 13.6%
8 | AACUCUAGCCUGAGCAACAG [hsa-miR-5684] | -2.91%
9 | AAAGAUAGACAAUUGGCUAAAU [hsa-miR-4662a-3p] | 4.11%
10 | UUGCUCUGAGCUCCGAGAAAGC [hsa-miR-5691] | -16.4%
11 | UAUGUCCCAUCCCUCCAUCA [hsa-miR-6834-3p] | -28.7%
12 | CUUUCAGUCGGAUGUUUACAGC [hsa-miR-30e-3p] | 14.5%
13 | AAACUAAUCUCUACACUGCUGC [hsa-miR-3129-3p] | 5.92%
14 | AGCUGUCUGAAAAUGUCUU [hsa-miR-626] | 25.1%
15 | AUCAAAUAAGGACUAGUCUGCA [hsa-miR-3671] | 14.8%
16 | UCAGGGAGUCAGGGGAGGGC [hsa-miR-4270] | -37.6%
17 | ACAGAUUCGAUUCUAGGGGAAU [hsa-miR-10b-3p] | -9.13%
18 | CCUGGCAUAUUUGGUAUAACUU [hsa-miR-4720-5p] | 46.4%
19 | UUCAACAAGGGUGUAGGAUGG [hsa-miR-7159-5p] | 14.1%
20 | CUCCCACAUGCAGGGUUUGCA [hsa-miR-188-3p] | 25%
21 | UAAAUCCCAUGGUGCCUUCUCCU [hsa-miR-605] | -52.1%
22 | CAAAAACUGCAAUUACUUUUGC [hsa-miR-548aq-3p] | 13.8%
23 | CGUGGAGGACGAGGAGGAGGC [hsa-miR-7847-3p] | -7.84%
24 | ACUGGACUUGGAGUCAGAAGGC [hsa-miR-378a-3p] | 13.6%
25 | UCACAACAACCUUGCAGGGUAGA [hsa-miR-5003-5p] | 16.9%
26 | AGGAGGAUGGAGAGCUGGGCCAGA [hsa-miR-6894-5p] | 6.67%
27 | AGCCGCUCUUCUCCCUGCCCACA [hsa-miR-6743-3p] | 35.5%
28 | AUGUCCCACCCCCACUCCUGU [hsa-miR-4433b-5p] | -37.3%
29 | AGAGAUGCCGCCUUGCUCCUU [hsa-miR-4708-5p] | -25.3%
30 | UGAGGUAGUAGUUUCUU [hsa-miR-4500] | 43.2%

The sequences below were run on MCF10A (assay: one-nucleolus phenotype percent effect (relative to siNT 0% and siNOL11 100%); higher = more cells with one nucleolus (ribosome biogenesis inhibition)). Details: 20 nM; 72 h.
Protocol: as §1

Row | Sequence | one-nucleolus phenotype percent effect
31 | UGGAAUGUAAAGAAGUAUGUAU [hsa-miR-1] | 8.45%
32 | CUAGGAGGCCUUGGCC [hsa-miR-4266] | 7.31%
33 | UAGGUAGUUUCAUGUUGUUGGG [hsa-miR-196a-5p] | -16.9%
34 | CCACUGCCUAUGCCCCACAG [hsa-miR-6890-3p] | -16.6%
35 | ACUUAAACGUGGAUGUACUUGCU [hsa-miR-302a-5p] | -19%
36 | CCCCGCCACCGCCUUGG [hsa-miR-4258] | -17.4%
37 | CUGUGGGCUCAGCGCGUGGGG [hsa-miR-4322] | 28.2%
38 | UGAAGCCAGCUCUGGUCUGGGC [hsa-miR-4786-3p] | 25%
39 | CCUCAGGGCUGUAGAACAGGGCU [hsa-miR-1266] | 12.6%
40 | ACCUGCCAGCACCUCCCUGCAG [hsa-miR-4722-3p] | 10.5%
41 | AAAAUGGUUCCCUUUAGAGUGU [hsa-miR-522-3p] | -12.4%
42 | GAAUAUGGGUAUAUUAGUUUGG [hsa-miR-5583-3p] | -14.1%
43 | UGCAACUUACCUGAGUCAUUGA [hsa-miR-891b] | 1.72%
44 | UGAUAUGUUUGAUAUAUUAGGU [hsa-miR-190a] | -13.2%
45 | AUGUGCCUGAGGGAGUAAGACA [hsa-miR-550b-2-5p] | 9.16%
46 | GAAUACUAAGUAAAAAAUCAGUA [hsa-miR-8084] | -33.5%
47 | GUGAGUGGGAGCCCCAGUGUGUG [hsa-miR-1238-5p] | -21.4%
48 | UAUGGGGCUUCUGUAGAGAUUUC [hsa-miR-3675-5p] | 22.6%
49 | UCUGGCUCCGUGUCUUCACUCCC [hsa-miR-149-5p] | 30.7%
50 | UGUAAACAUCCUCGACUGGAAG [hsa-miR-30a-5p] | -3.76%

Row | Sequence | one-nucleolus phenotype percent effect
51 | UAUGUAGUAGUCAAAGGCAUUU [hsa-miR-7852-3p] | -3.81%
52 | UCCUGUCUUUCCUUGUUGGAGC [hsa-miR-5699] | -26.2%
53 | UCAGUGUCUGGAUUUCCUAG [hsa-miR-6733-3p] | -2.06%
54 | AGAGGUUAUCCGUGUUAUGUUC [hsa-miR-655-5p] | 22.9%
55 | UUGAAGAGGAGGUGCUCUGUAGC [hsa-miR-4709-3p] | 29.5%
56 | GAGUGGGGCUUCGACCCUAACC [hsa-miR-1296-3p] | 8.1%
57 | CGAAUCAUUAUUUGCUGCUCUA [hsa-miR-15b-3p] | -19.7%
58 | ACACCCUCUUUCCCUACCGCC [hsa-miR-6865-3p] | -26%
59 | UGCUUAACCUUGCCCUCGAAA [hsa-miR-4804-3p] | 20.5%
60 | GUGCCAGCUGCAGUGGGGGAG [hsa-miR-1202] | -8.53%
61 | AGUUAAUGAAUCCUGGAAAGU [hsa-miR-569] | 10.3%
62 | CGCAGGGGCCGGGUGCUCACCG [hsa-miR-1909-3p] | 20.6%
63 | AAGGGGCUGGGGGAGCACA [hsa-miR-6085] | 33.3%
64 | GGGCUCACAUCACCCCAU [hsa-miR-4284] | -1.42%
65 | AGCAUGACAGAGGAGAGGUGG [hsa-miR-6076] | 7.38%
66 | AGAUGUAUGGAAUCUGUAUAUAUC [hsa-miR-3171] | -12.5%
67 | AACUCUAGCCUGAGCAACAG [hsa-miR-5684] | 2.62%
68 | AAAGAUAGACAAUUGGCUAAAU [hsa-miR-4662a-3p] | -23.7%
69 | UUGCUCUGAGCUCCGAGAAAGC [hsa-miR-5691] | -10.3%
70 | UAUGUCCCAUCCCUCCAUCA [hsa-miR-6834-3p] | 21.4%

Row | Sequence | one-nucleolus phenotype percent effect
71 | CUUUCAGUCGGAUGUUUACAGC [hsa-miR-30e-3p] | -11.8%
72 | AAACUAAUCUCUACACUGCUGC [hsa-miR-3129-3p] | -4.83%
73 | AGCUGUCUGAAAAUGUCUU [hsa-miR-626] | 2.9%
74 | AUCAAAUAAGGACUAGUCUGCA [hsa-miR-3671] | -10.1%
75 | UCAGGGAGUCAGGGGAGGGC [hsa-miR-4270] | 36.8%
76 | ACAGAUUCGAUUCUAGGGGAAU [hsa-miR-10b-3p] | 15.6%
77 | CCUGGCAUAUUUGGUAUAACUU [hsa-miR-4720-5p] | 1.6%
78 | UUCAACAAGGGUGUAGGAUGG [hsa-miR-7159-5p] | -19.4%
79 | CUCCCACAUGCAGGGUUUGCA [hsa-miR-188-3p] | -6.75%
80 | UAAAUCCCAUGGUGCCUUCUCCU [hsa-miR-605] | 53.8%
81 | CAAAAACUGCAAUUACUUUUGC [hsa-miR-548aq-3p] | -26.6%
82 | CGUGGAGGACGAGGAGGAGGC [hsa-miR-7847-3p] | 4.16%
83 | ACUGGACUUGGAGUCAGAAGGC [hsa-miR-378a-3p] | -2.19%
84 | UCACAACAACCUUGCAGGGUAGA [hsa-miR-5003-5p] | -10.6%
85 | AGGAGGAUGGAGAGCUGGGCCAGA [hsa-miR-6894-5p] | 22.2%
86 | AGCCGCUCUUCUCCCUGCCCACA [hsa-miR-6743-3p] | -1.42%
87 | AUGUCCCACCCCCACUCCUGU [hsa-miR-4433b-5p] | 55.5%
88 | AGAGAUGCCGCCUUGCUCCUU [hsa-miR-4708-5p] | 21%
89 | UGAGGUAGUAGUUUCUU [hsa-miR-4500] | -31.4%
